# Experimental data: US20240376204A1
# Biological target: human PVRIG expressed on cells (human) (UniProt Q6DKI7)
# Assay: cell-based or functional assay
# Chain of human PVRIG expressed on cells (human) (Q6DKI7 41-326 limits assumed, form in doubt): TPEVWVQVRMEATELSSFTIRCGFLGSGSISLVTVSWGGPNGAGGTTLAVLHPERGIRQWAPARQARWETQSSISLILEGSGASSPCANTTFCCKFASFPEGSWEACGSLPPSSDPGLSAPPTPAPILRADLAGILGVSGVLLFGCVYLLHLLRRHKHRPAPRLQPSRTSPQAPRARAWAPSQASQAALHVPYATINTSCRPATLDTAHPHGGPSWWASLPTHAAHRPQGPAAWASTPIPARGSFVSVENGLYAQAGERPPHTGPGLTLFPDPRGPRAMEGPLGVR
substance,measurement,value
hIgG4 isotype control (antibody),"IFNγ, mixed lymphocyte reaction, 20 nM antibody",74 pg/mL
same,"IFNγ, mixed lymphocyte reaction, 100 nM antibody",89 pg/mL
same,"Killing activity (%) of NK92 on K562, 4 nM antibody",11.2%
same,"Killing activity (%) of NK92 on K562, 20 nM antibody",11.7%
same,"Killing activity (%) of NK92 on K562, 100 nM antibody",9.2%
